# Laboratory results published in the DeepSol protein solubility set.
# Assay: soluble on expression in E. coli; label from the status in PepcDB or PDB records
row,Sequence,soluble on expression in E. coli
1,MYAKANNRTVLSFSEQQIIDCGNFTSPCQENILSHEFIKKNGVVTEADYPYVGKENEKCKYDENKIKLWPTNMLLVGNLPETLLKLFIKEHGPGYFRMKAPPSFFNYKTGIYSPTQEECGKATDARSLTIVGYGIEGGQNYWIVKGSFGT,not soluble
2,SALSSCASLLGSPLSNDFMVLSLSDLLTPWEVIRKRAEAAAILDLVTVIYNPRGSRFPNNLEKVMEYFLKYRSGDTPVGIVRNAYRPDQSAKIVQLKDFSCSEIDMLTTVIIGNSETY,not soluble
3,MSLGSMSATPLQAGLKTLQLTEPFRIAHGTSTERQVLRLRWNGAVGEAPVVPYYKESAAVTLEWLQALDWNGSPAPKDGPRLGRLALDLLWHDAVGRDKRQTLGQMLHLNPAQTPPGCRSFSIPTDLDKFAEKVAQVSRQFQVLKLKTGSGNVEFDEAIVATARKAAPDAKLLVDANGGWTVEETAAILPKLVKYDLTLVEQPFHHDGGSESWRELKYLLPSHSIPLYADESAQGPDDVLTLAGLVDGVNVKLLKCGSIAEAQTMIRFARASGMGVLLGCMIESSVGVTAAAHLAPLADWIDLDGHLYVADDDYEGVSYDEQGRLHLRDLPGLGVTPREGHHHHHH,soluble
4,MPDSDTGSNMAHTMTAAVQQAQGVDNPDDLAAVAMALATGAVKGARGNSGVVLSQVLRGIAHHADSGRIDAHVIQEALRSSLDFVAAAISDPVEGTVITVLRAAAIAATNSEDRSLAAVVSVAAHAARIALAETPSQLQVLRDAKVVDAGGQGLVILLDCLEHVVTGTATSYDPHIIETTEQQQSHGTSGYLEVMCFIAGVEVSHLHDLLAPLGDCLVIGPISDTSATVHIHSTDAATVISTLYATGTITDLHIEVLPETPKVVHPKRIVLALTPPGDLAQLYTDAGALVVVRDGHHFAIARSTNLGQAETPLADGIEIVNELVARSHQSGAQEVILLPNGLLTTQEMAAVERSSQAFKQSITMLPTGSLVRGLAALSVHDPQQSLAVATYAMTEAMSGMRTAVIERAEHAALTPAGACAKGDLLVHLGTEPIAVAEQPEEALRIACRRLLDIGGEQILILARKELALTPDNHSLTGPHTDVEINQYDVDRLGALIEIGVE,not soluble
5,MTHAPTTTPLRTAAKLLAAGAAALTLNSCAYDGIKVIVINMFQGEAQPFIDRYDLKEKVYIAGLSPDAPNLLCNYDGICQVTTGMGYANAAATLSALLYRSKLDLTQTYFVIAGIAGIDPGQGTVGSAAWARYAVDYGLSHEIDAREMPAAWPYGYFGIGTKGPGEKPPMNYRTEVFRLNEALLQRAYALSKPVTLEDSPEAIAFRKHYAYAPANQPPAVIQCDVASADTWWAGRNLGQRARDWTKTMTDGKGTYCTTAQEDNATLEVLARGARAGKVDFSRVALLRTGSDFDRPYDGQSAADGLVNYAQQGGFVPATHNLVNAAKPLLDDIVLRWPQWAQGVPANLEHHHHHH,not soluble
6,MPEILKIKPTRMELLKLKRRVKLAERGHKLLKEKQDALIMEFFTIYDEALSLRRELIRKMEEAFNSLRRAQVDVGALRLKEIAIGVKPNKEIEIKTRNIMGVRVPLIEVPELKRKASERGYAFVSTTSTVDMAAEKFEEVLELAIRLAEVEESLKRLGKEIEKTKRRVNALEYIIIPRMENTIKFIEQHLDEMERENFFRLKRVKAILEARQSMLEHHHHHH,soluble
7,MHRASLICRLASPSRINAIRNASSGKSHISASTLVQHRNQSVAAAVKHEPFLNGSSSIYIEQMYEAWLQDPSSVHTSWDAYFRNVEAGAGPGQAFQAPPATAYAGALGVSPAAAQVTTSSAPATRLDTNASVQSISDHLKIQLLIRSYQTRGHNIADLDPLGINSADLDDTIPPELELSFYGLGERDLDREFLLPPTTFISEKKSLTLREILQRLKDIYCTSTGVEYMHLNNLEQQDWIRRRFEAPRVTELSHDQKKVLFKRLIRSTKFEEFLAKKWPSEKRFGLEGCEVLIPAMKQVIDSSSTLGVDSFVIGMPHRGRLNVLANVCRQPLATILSQFSTLEPADEGSGDVKYHLGVCIERLNRQSQKNVKIAVVANPSHLEAVDPVVMGKVRAEAFYAGDEKCDRTMAILLHGDAAFAGQGVVLETFNLDDLPSYTTHGAIHIVVNNQIGFTTDPRSSRSSPYCTDVGRVVGCPIFHVNVDDPEAVMHVCNVAADWRKTFKKDVIVDLVCYRRHGHNELDEPMFTQPLMYQRIKQTKTALEKYQEKILNEGVANEQYVKEELTKYGSILEDAYENAQKVTYVRNRDWLDSPWDDFFKKRDPLKLPSTGIEQENIEQIIGKFSQYPEGFNLHRGLERTLKGRQQMLKDNSLDWACGEALAFGSLLKEGIHVRLSGQDVQRGTFSHRHHVLHDQKVDQKIYNPLNDLSEGQGEYTVCNSSLSEYAVLGFELGYSMVDPNSLVIWEAQFGDFSNTAQCIIDQFISSGQSKWIRQSGLVMLLPHGYEGMGPEHSSARPERFLQMCNEDDEIDLEKIAFEGTFEAQQLHDTNWIVANCTTPANIYHLLRRQVTMPFRKPAVVFSPKSLLRHPMARSPVEDFQSGSNFQRVIPETGAPSQNPPDVKRVVFCTGKVYYDMVAARKHVGKENDVALVRVEQLSPFPYDLVQQECRKYQGAEILWAQEEHKNMGAWSFVQPRINSLLSIDGRATKYAGRLPSSSPATGNKFTHMQEQKEMMSKVFGVPKSKLEGFKA,not soluble
8,GMLDNAIPQGFEDAVELRRKNRETVVKYMNTKGQDRLRRHELFVEDGCGGLWTTDTGSPIVIRGKDKLAEHAVWSLKCFPDWEWYNIKVFETDDPNHFWVECDGHGKILFPGYPEGYYENHFLHSFELDDGKIKRNREFMNVFQQLRALSIPVPQIKREGIPT,soluble
9,MAHHHHHHMSLNAADAADERSRKEMDRFQVERMAGQGTFGTVQLGKEKSTGMSVAIKKVIQDPRFRNRELQIMQDLAVLHHPNIVQLQSYFYTLGERDRRDIYLNVVMEYVPDTLHRCCRNYYRRQVAPPPILIKVFLFQLIRSIGCLHLPSVNVCHRDIKPHNVLVNEADGTLKLCDFGSAKKLSPSEPNVAYICSRYYRAPELIFGNQHYTTSVDIWSVGCIFAEMMLGEPIFRGDNSAGQLHEIVRVLGCPSREVLRKLNPSHTDVDLYNSKGIPWSSVFCDHSLKDAKEAYDLLSALLQYLPEDRMKPYEALCHPYFDELHDSATKLPNNKDLPEDLFRFLPSEIEVMSEAQKAKLVRK,not soluble
10,MGSDKIHHHHHHMYSSEKMQWFAMRATYRRGMQIKGLLDQKGINSFIPMRYEIHLKNGHRRRELVPVIRDIVFVHTTQSELQRIKYGIPYFQYMMDIRNGEKIIVPDEQMRRFIAVAGTYDEQIIFFSPDEVNLRKGTKVRITGGQFEGYEGVFVKVKGSRDRRVVISLQGILALAMATLSPDLIEVIEEPKKRNHD,not soluble
11,TSPTTTSTGTGTGSSTDQAISPLVEGENAPEVTTAKLGFIALTDAAPLIIAKEKGFYAKYGMPDVEVLKQASWGTTRDNLVLGSASGGIDGAHILTPMPYLITMGTVTDGKPTPMYILARLNVNGQGIQLGNNYKDLKVGTDAAPLKEAFAKVTDPKVAMTFPGGTHDMWIRYWLAAGGMEPGKDFSTIVVPPAQMVANVKVNAMESFCVGEPWPLQTVNQGVGYQALTTGQLWKDHPEKAFGMRADWVDQNPKAAKALLMAVMEAQQWCDQAENKEEMCQILSKREWFKVPFEDIIDRSKGIYNFGNGQETFEDQEIMQKYWVDNASYPYKSHDQWFLTENIRWGYLPASTDTKAIVDKVNREDLWREAAQALEVPADQIPSSPSRGIETFFDGITFDPENPQAYLDSLKIKSIKA,soluble
12,MGSDKIHHHHHHMTDSKCYAAIDIGSNAVRLLIKKVKNNENLANKRLSKVMLLRVPLRLGFDVFSLGEVSDAKVMKLRRLMKAFRQLMKIYEVINYRACATSAMRDAQNGKSVIKKVWKDTGINIEVINGQEEARMIYNNHIECLEDRAGNYIYVDVGGGSTEINFLINGELVQSLSYNIGTVRMLSNSVREGSWEQMKSDLTRLTADFQGVNIIGSGGNINKLYRLADKKDKKQSRLPITSLQELYDKLKVLTLEQRMEEFNLKTDRADVIVPAAGIFLIIAGIVKAEYIHVPVIGLADGIIDNLYAIDLKTE,not soluble
13,ATDVAARGLDISGVTHVYNYDIPQDPESYVHRIGRTGRAGKEGMAITFVQPREMGYLRIVEETTKKRMQPLQAPTWDEAFAGQLRVATEKIQEAITEENLADYKTFANELLEKYDATDIAAAMLKMLAKEPDKTPVHITEERPLPSRGGGGYKGK,not soluble
14,MAHHHHHHMQDVDEMKYLLPNLKQPITSIQVHSWTGTKESYILESKDYVLGEGMPEKCDAIATDCFLSGFTDIGKCFQCKLLMQEKNINDSCFKYVSSNQKELIKKQLKITAQDDEESSEYHLSESIKNLLKNIYKKNNDDNKKKELLHFENVNSALKSELLNYCNLLKEVNMNGVLKDHQLGNVQDVFNNLTKLLEEHKEENDNVLYHKMKNEALCLKNVNDWMKNKTGLLLPQLSYDLTYKNNNFTEFTQNKSYTSQNIVDKLYCNHEYCNRLKDHNNCISKINVEDQKNCALSWAFASKYHLETIKCMKGYEPLNASVLYVTNCLKNKNKDVCTEGSNPLVFLETIEEKGFLPTESNYPYDQSKVGDICPQLQNDWDNVFENTKVLDYNNGPFSVGTKGYIAYESEAFQKDMHSFVKLVKDEIMNKGSVIAYVKAENVLGYELNGKKVQNLCGDKTPDHVVNIVGYGNYINNKGEKKSYWIVRNSWGKYWGDDGYFKVDMYGPSTCEDNFIHTVVVFNVQVPINEKFDKKEHDIYNYYLKTSPEFYHNLYYKTFNSNKEEKSMNKNSYVYGQDTTPVENEAPRSGVQKPTELSSTESQTVSPPNESQTESLLSGGSQVTNPTLTQSTSSSSGQQETGPLSTQGLSPATGDPKGKEQEASPAEGLSGVLNPTKEVTSEEKIQIIHLLKHIKNSKIRRGLVKYNHEFEVGDNSCSRSTSKNAEMHDECVNICEKYWPECRGTAVPGYCLSTHDDKNECDFCYV,not soluble
15,MRDLLNDLSEGLSHPDPILRAQIQMQKPLPKRFYKDVTVADVEEGGFTILLDGKPLRTPAKKPLVAPSRALADLLRDEWDAQKEVVNPVVMPVSRHVNTAIDGIASDTQAVFEDILRFSSSDLLCYRAGDPEALVARQTDYWDPVLDWATNVLGARFILVEGVMHRDQPREAIAAFAVTLKKYDTPIALAALHTMTSLTGSAILALALAEGELTLEEAWALAHLDEDWTAEQWGEDEEALERRAVRLIDMRAALNVLESLKSAS,soluble
16,MSEKRLTMKETIRRKALSLGFCAVGFAAADTLNEAMKEYRAMIDEGRHGEMGYLETGLEARANPELLLPGVKSVLSAALPWPAPAKPGAISGYAVIPDYHRVVGELLKELLDFIRSICDHPINGQICVDSSPVLEKEWAEAAGIGRTGKNTLLIVPGYGSRVFLGELLLDLELEPDTPLDWNPCGDCTACLDACPTGALNTPGKLDARRCISYLTIELKRDFTDEEAAMTNGWFYGCDHCLDACPHNANIEATGYPGFEQKKELVNLTPEKALELTHSQFRKRFAGTPALRLGLRRLKRNARAAVANKSQSKS,not soluble
17,MKRLIVGISGASGAIYGVRLLQVLRDVTDIETHLVMSQAARQTLSLETDFSLREVQALADVTHDARDIAASISSGSFQTLGMVILPCSIKTLSGIVHSYTDGLLTRAADVVLKERRPLVLCVRETPLHLGHLRLMTQAAEIGAVIMPPVPAFYHRPQSLDDVINQTVNRVLDQFAITLPEDLFARWQGA,not soluble
18,MGSDKIHHHHHHMDSSCSPKHGWFDSVAESYAQQRPYYPESLFTWISSKAASHQRCWDVACGSGQASLGLARHFDRVDASDLSPAQVAAAPAHSNIHYQVAAAEDSGFPNACMDAIVVAAAIHWLDVPRFNEEALKVARPGGLMVWVGYDPPQGAPPALQLWLDQLYSERLSSWWPPQRHHVDNHYQNLPFPTISKTLPQELCISLKWSCEQLIGYIGTWSALRKATQEGHDLLPQLSMELQRLWPADQKTIPLIFPLMGRWGYLAR,not soluble
